We go through 20 molecules from patent US20230285514A1, “STAPLED LACTAM CO-AGONISTS OF THE GLUCAGON AND GLP-1 RECEPTORS” (Merck Sharp & Dohme LLC, priority 2019, published 2023).

*1 amine or outer side, *2 acyl side, *3 side chain or, on linkers, in order; H or OH if unused. Where a SMILES comes first, the peptide text is derived from it. Bridges are numbered along the chain shown (N, C = ends). Where no end group is shown, it is not given here. Side-chain parts run from the residue outwards. [ ]: non-standard residue; d: D form. The star is where a group is joined. γGlu = O=C(O)[C@H](CCC(=O)[*:2])N[*:1]; Met(O2) = CS(=O)(=O)CC[C@H](N)C(=O)O; Palmitoyl = CCCCCCCCCCCCCCCC(=O)*; Nle = CCCC[C@H](N)C(=O)O; Ac4c = NC1(C(=O)O)CCC1; Aib = CC(C)(N)C(=O)O

First the molecules themselves.
B1: TP834 (peptide)
peptide: H[dS]QGTFTSDKSKYLDARAAQDFVKWLLET-NH2
modifications: lactam 24-28; not fully specified (residue 10); printed as HsQGTFTSDK(γEγEC16)SKYLDARAAQDFVK*WLLE*T-NH2
B2: TP484 (peptide)
peptide: HXQGTFTSDXSKYLDERAAEDFVKWLLDT
modifications: s = D-Serine at 2; K10 conjugated to γEγE-C16 fatty acid; E*20 and K*24 cyclized to form a lactam containing ring; C-terminal amide
B3: TP710 (peptide)
peptide: H[dS]QGTFTSDKSKYLDAKAAQEFVQWLLDT-NH2
modifications: lactam 17-21; not fully specified (residue 10); printed as HsQGTFTSDK(γEγEC16)SKYLDAK*AAQE*FVQWLLDT-NH2
B4: TP486 (peptide)
peptide: H[Aib]QGTFTSDKSKYLD[Aib]RAAQDFVEWLMKTK(γGlu)-NH2
modifications: lactam 24-28; not fully specified (residue 10); printed as HUQGTFTSDK(γEγEC16)SKYLDURAAQDFVE*WLMK*TKγE-NH2
B5: TP850 (peptide)
peptide: H[Aib]QGTFTSDKSKYLD[Aib]RAAQDFVKWL[Met(O2)]ETK(γGlu)-NH2
modifications: lactam 24-28; not fully specified (residue 10); printed as HUQGTFTSDK(γEγEC16)SKYLDURAAQDFVK*WL2E*TKγE-NH2
B6: TP844 (peptide)
peptide: H[Aib]QGTFTSDKSKYLDKRAAEDFVQWL[Met(O2)]DTK(γGlu)-NH2
modifications: lactam 16-20; not fully specified (residue 10); printed as HUQGTFTSDK(γEγEC16)SKYLDK*RAAE*DFVQWL2DTKγE-NH2
B7: Peptide SEQ ID No. 10 (TP706) (peptide)
peptide: H[dS]QGTFTSDKSKYLDKRAAEDFVQWLLDT-NH2
modifications: lactam 16-20; not fully specified (residue 10); printed as HsQGTFTSDK(γEγEC16)SKYLDK*RAAE*DFVQWLLDT-NH2
B8: TP836 (peptide)
peptide: H[Aib]QGTFTSDKSKYLDKRAAEDFVQWL[Nle]DT-NH2
modifications: lactam 16-20; not fully specified (residue 10); printed as HUQGTFTSDK(γEγEC16)SKYLDK*RAAE*DFVQWL-Nle-DT-NH2
B9: TP848 (peptide)
peptide: H[Aib]QGTFTSDKSKYLD[Aib]KAAQEFVQWL[Met(O2)]DTK(γGlu)-NH2
modifications: lactam 17-21; not fully specified (residue 10); printed as HUQGTFTSDK(γEγEC16)SKYLDUK*AAQE*FVQWL2DTKγE-NH2
B10: TP838 (peptide)
peptide: H[Aib]QGTFTSDKSKYLD[Aib]RAAKDFVEWL[Nle]DT-NH2
modifications: lactam 20-24; not fully specified (residue 10); printed as HUQGTFTSDK(γEγEC16)SKYLDURAAK*DFVE*WL-Nle-DT-NH2
B11: TP842 (peptide)
peptide: H[Aib]QGTFTSDKSKYLD[Aib]RAAQDFVKWL[Nle]ET-NH2
modifications: lactam 24-28; not fully specified (residue 10); printed as HUQGTFTSDK(γEγEC16)SKYLDURAAQDFVK*WL-Nle-E*T-NH2
B12: TP707 (peptide)
peptide: H[dS]QGTFTSDKSKYLDARAAKDFVEWLLDT-NH2
modifications: lactam 20-24; not fully specified (residue 10); printed as HsQGTFTSDK(γEγEC16)SKYLDARAAK*DFVE*WLLDT-NH2
B13: TP840 (peptide)
peptide: H[Aib]QGTFTSDKSKYLD[Aib]KAAQEFVQWL[Nle]DT-NH2
modifications: lactam 17-21; not fully specified (residue 10); printed as HUQGTFTSDK(γEγEC16)SKYLDUK*AAQE*FVQWL-Nle-DT-NH2
B14: TP846 (peptide)
peptide: H[Aib]QGTFTSDKSKYLD[Aib]RAAKDFVEWL[Met(O2)]DTK(γGlu)-NH2
modifications: lactam 20-24; not fully specified (residue 10); printed as HUQGTFTSDK(γEγEC16)SKYLDURAAK*DFVE*WL2DTKγE-NH2
B15: TP485 (peptide)
peptide: H[dS]QGTFTSDKSKYLDERAAKDFVEWLLDT-NH2
modifications: lactam 20-24; not fully specified (residue 10); printed as HsQGTFTSDK(γEγEC16)SKYLDERAAK*DFVE*WLLDT-NH2

In one assay the target is human GLP-1 receptor (GLP1R) (human, UniProt P43220). Kind of assay: cell-based or functional assay.
Conditions: not given
On to B1, for which the “GLP1R EC50 human (nM), cAMP activity assay” value (“GLP1R EC50 human (nM)” below) worked out at 0.137 nM. The same measure, in the same setting: the result for B2 reads 0.12 nM; that for B3, 0.07 nM; that for B4, 0.29 nM. On the same count and under the same terms, to B5 belongs 0.033 nM.

With B6, the “GLP1R EC50 human (nM)” value was 0.022 nM. Still for that read-out and setting: to B7 belongs 0.107 nM. On the same count and under the same terms, the result for B8 reads 0.198 nM; that for H[Aib]QGTFTSDKSKYLD[Ac4c]KAAQEFVQWL[Met(O2)]DTK(γGlu)-NH2 (lactam 17-21; not fully specified (residue 10)) [TP857], 0.038 nM.

For H[Aib]QGTFTSDKSKYLD[Ac4c]RAAKDFVEWL[Met(O2)]DTK(γGlu)-NH2 (lactam 20-24; not fully specified (residue 10)) [TP859], the “GLP1R EC50 human (nM)” value was determined as 0.043 nM. B9: the “GLP1R EC50 human (nM)” value worked out at 0.044 nM. The same measure, in the same setting: the result for H[dS]QGTFTSEK([γGlu-γGlu-C16 fatty acid])SKKLD[Aib]RAAQDFVQWLLATK(γGlu)-NH2 (lactam 9-13) [TP115] reads 1.03 nM; that for B10, 0.259 nM. Still for that read-out and setting: to B11 belongs 0.237 nM. On the same count and under the same terms, to B12 belongs 0.17 nM; to B13, 0.17 nM; to B14, 0.147 nM. Consider B15, for which the “GLP1R EC50 human (nM)” value amounted to 0.14 nM. Same read-out and setting: the result for H[Aib]QGTFTSDKSKYLD[Ac4c]RAAQDFVKWL[Met(O2)]ETK(γGlu)-NH2 (lactam 24-28; not fully specified (residue 10)) [TP861] reads 0.056 nM.

The next assay concerns the target human Glucagon receptor (GCGR) (human, UniProt P47871). Nature of the assay: cell-based or functional assay.
Conditions: not given
Consider B1, for which the “GCGR EC50 human (nM), cAMP activity assay” value (shortened to “GCGR EC50 human (nM)”) turned out to be 0.077 nM. Consider B2, for which the “GCGR EC50 human (nM)” value is 0.04 nM. Regarding B3, the “GCGR EC50 human (nM)” value stood at 0.06 nM. Same read-out and setting: the result for B4 reads 0.06 nM; that for B5, 0.034 nM; that for B6, 0.046 nM. As for B7, the “GCGR EC50 human (nM)” value worked out at 0.089 nM.

With B8, the “GCGR EC50 human (nM)” value worked out at 0.281 nM. Take H[Aib]QGTFTSDKSKYLD[Ac4c]KAAQEFVQWL[Met(O2)]DTK(γGlu)-NH2 (lactam 17-21; not fully specified (residue 10)) [TP857]: the “GCGR EC50 human (nM)” value is 0.092 nM. H[Aib]QGTFTSDKSKYLD[Ac4c]RAAKDFVEWL[Met(O2)]DTK(γGlu)-NH2 (lactam 20-24; not fully specified (residue 10)) [TP859]: the “GCGR EC50 human (nM)” value is 0.108 nM. As to B9, the “GCGR EC50 human (nM)” value was 0.079 nM. On to H[dS]QGTFTSEK([γGlu-γGlu-C16 fatty acid])SKKLD[Aib]RAAQDFVQWLLATK(γGlu)-NH2 (lactam 9-13) [TP115], for which the “GCGR EC50 human (nM)” value was 0.81 nM.

B10: the “GCGR EC50 human (nM)” value came out at 0.675 nM. B11: the “GCGR EC50 human (nM)” value turned out to be 0.248 nM. Still for that read-out and setting: the result for B12 reads 0.1 nM. Still for that read-out and setting: to B13 belongs 0.212 nM; to B14, 0.176 nM; to B15, 0.05 nM. On the same count and under the same terms, the result for H[Aib]QGTFTSDKSKYLD[Ac4c]RAAQDFVKWL[Met(O2)]ETK(γGlu)-NH2 (lactam 24-28; not fully specified (residue 10)) [TP861] reads 0.928 nM.

In a further assay the target is T1, human GCGR (Homo sapiens, UniProt P47871).
T1 construct: expressed in transfected cells
T1 sequence (P47871 26-477): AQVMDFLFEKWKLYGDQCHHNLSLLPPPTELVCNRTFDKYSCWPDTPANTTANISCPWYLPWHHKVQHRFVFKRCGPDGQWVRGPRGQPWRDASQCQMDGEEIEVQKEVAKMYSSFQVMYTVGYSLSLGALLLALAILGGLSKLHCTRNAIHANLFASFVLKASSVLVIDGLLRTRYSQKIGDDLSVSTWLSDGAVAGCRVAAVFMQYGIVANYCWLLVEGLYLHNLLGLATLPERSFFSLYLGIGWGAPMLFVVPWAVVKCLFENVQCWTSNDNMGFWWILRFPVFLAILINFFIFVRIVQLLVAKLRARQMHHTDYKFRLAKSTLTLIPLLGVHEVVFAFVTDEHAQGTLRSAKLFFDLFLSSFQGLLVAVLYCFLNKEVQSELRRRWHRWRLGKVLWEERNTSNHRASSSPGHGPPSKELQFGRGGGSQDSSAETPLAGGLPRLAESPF
Kind of assay: cAMP activity assay, cells expressing human GCGR. Particulars: ratio of human GCGR EC50 to human GLP1R EC50. Type of assay: cell-based. Here is the method: Activity of the peptides at the Glucagon receptor (GCGR) and GLP-1 receptor (GLP1R) was measured in a cAMP activity assay. Peptides were dissolved in 100% DMSO and serially diluted to generate 10 point titrations. The peptide solutions were then transferred into 384-well assay plates (150 nL/well). Assay ready frozen cells expressing human GLP1R or human GCGR were suspended in growth media consisting of DMEM medium (GIBCO), 10% FBS (GIBCO), 1×NEAA(GIBCO), 1×P/S (GIBCO), 10 ug/ml Blasticidin (GIBCO) and 200 μg/mL Hygromycin (GIBCO). […] The cell suspensions (15 μL) were then added to the assay plates containing the peptide solutions (30,000 cells/well for human GCGR; 10,000 cells/well for human GLP1R). […] Production of cAMP was determined using […] kits (DiscoverX) following manufacturer protocol. The plates were incubated for overnight at room temperature in the dark. Luminescence was measured using an EnVision Multilabel plate reader (Perkin Elmer). Native GLP-1 and Glucagon (Bachem) are used as control peptides.
Consider `CCCCCCCCCCCCCCCC(=O)N[C@@H](CCC(=O)N[C@@H](CCC(=O)NCCCC[C@H](NC(=O)[C@H](CC(=O)O)NC(=O)[C@H](CO)NC(=O)[C@@H](NC(=O)[C@H](Cc1ccccc1)NC(=O)[C@@H](NC(=O)CNC(=O)[C@H](CCC(N)=O)NC(=O)[C@@H](CO)NC(=O)[C@@H](N)Cc1c[nH]cn1)[C@@H](C)O)[C@@H](C)O)C(=O)N[C@@H](CO)C(=O)N[C@@H](CCCCN)C(=O)N[C@@H](Cc1ccc(O)cc1)C(=O)N[C@@H](CC(C)C)C(=O)N[C@@H](CC(=O)O)C(=O)N[C@@H](CCC(=O)O)C(=O)N[C@@H](CCCNC(=N)N)C(=O)N[C@@H](C)C(=O)N[C@@H](C)C(=O)N[C@H]1CCC(=O)NCCCC[C@@H](C(=O)N[C@@H](Cc2c[nH]c3ccccc23)C(=O)N[C@@H](CC(C)C)C(=O)N[C@@H](CC(C)C)C(=O)N[C@@H](CC(=O)O)C(=O)N[C@H](C(N)=O)[C@@H](C)O)NC(=O)[C@H](C(C)C)NC(=O)[C@H](Cc2ccccc2)NC(=O)[C@H](CC(=O)O)NC1=O)C(=O)O)C(=O)O` [SEQ ID NO: 7] (H-H[dS]QGTFTSDK([γGlu-γGlu-Palmitoyl])SKYLDERAAEDFVKWLLDT-NH2; lactam 20-24; N-terminus assumed), for which the “hGCGR/hGLPIR (hTone)” value is reported as 1.05.
